Experimental data from patent publication US20030129296A1.
Values belong to the substance of their own block, whether it stands above or below them.

How the values were obtained:
[1] = molecular target: mouse IgG labeled with Alexa Fluor 488 (Molecular Probes, Inc., A-11243 anti-biotin, mouse monoclonal 2F5, Alexa Fluor 488 conjugate) (mouse); assay: fluorescence imaging of film-immobilized capture particles; labeled target at 1 nM, 2 h
[2] = molecular target: mouse IgG labeled with Alexa Fluor 488 (Molecular Probes, Inc., A-11243 anti-biotin, mouse monoclonal 2F5, Alexa Fluor 488 conjugate) (mouse); assay: fluorescence imaging of film-immobilized capture particles; labeled target at 10 nM, 2 h
[3] = molecular target: mouse IgG labeled with Alexa Fluor 488 (Molecular Probes, Inc., A-11243 anti-biotin, mouse monoclonal 2F5, Alexa Fluor 488 conjugate) (mouse); assay: fluorescence imaging of film-immobilized capture particles; labeled target at 100 nM, 2 h
[4] = molecular target: mouse IgG labeled with Alexa Fluor 488 (Molecular Probes, Inc., A-11243 anti-biotin, mouse monoclonal 2F5, Alexa Fluor 488 conjugate) (mouse); assay: ratio of particle fluorescence to film background fluorescence; labeled target at 1 nM, 2 h
[5] = molecular target: mouse IgG labeled with Alexa Fluor 488 (Molecular Probes, Inc., A-11243 anti-biotin, mouse monoclonal 2F5, Alexa Fluor 488 conjugate) (mouse); assay: ratio of particle fluorescence to film background fluorescence; labeled target at 10 nM, 2 h
[6] = molecular target: mouse IgG labeled with Alexa Fluor 488 (Molecular Probes, Inc., A-11243 anti-biotin, mouse monoclonal 2F5, Alexa Fluor 488 conjugate) (mouse); assay: ratio of particle fluorescence to film background fluorescence; labeled target at 100 nM, 2 h
[7] = molecular target: mouse IgG labeled with Alexa Fluor 488 (Molecular Probes, Inc., A-11243 anti-biotin, mouse monoclonal 2F5, Alexa Fluor 488 conjugate) (mouse); assay: net median particle fluorescence divided by that of the blank (0 nM) particles; labeled target at 1 nM, 2 h
[8] = molecular target: mouse IgG labeled with Alexa Fluor 488 (Molecular Probes, Inc., A-11243 anti-biotin, mouse monoclonal 2F5, Alexa Fluor 488 conjugate) (mouse); assay: net median particle fluorescence divided by that of the blank (0 nM) particles; labeled target at 10 nM, 2 h
[9] = molecular target: mouse IgG labeled with Alexa Fluor 488 (Molecular Probes, Inc., A-11243 anti-biotin, mouse monoclonal 2F5, Alexa Fluor 488 conjugate) (mouse); assay: net median particle fluorescence divided by that of the blank (0 nM) particles; labeled target at 100 nM, 2 h
[10] = molecular target: mouse IgG labeled with Alexa Fluor 488 (Molecular Probes, Inc., A-11243 anti-biotin, mouse monoclonal 2F5, Alexa Fluor 488 conjugate) (mouse); assay: fluorescence imaging of film-immobilized capture particles, film background subtracted; labeled target at 1 nM, 2 h
[11] = molecular target: mouse IgG labeled with Alexa Fluor 488 (Molecular Probes, Inc., A-11243 anti-biotin, mouse monoclonal 2F5, Alexa Fluor 488 conjugate) (mouse); assay: fluorescence imaging of film-immobilized capture particles, film background subtracted; labeled target at 10 nM, 2 h
[12] = molecular target: mouse IgG labeled with Alexa Fluor 488 (Molecular Probes, Inc., A-11243 anti-biotin, mouse monoclonal 2F5, Alexa Fluor 488 conjugate) (mouse); assay: fluorescence imaging of film-immobilized capture particles, film background subtracted; labeled target at 100 nM, 2 h
[13] = molecular target: Cy3-labeled mouse monoclonal antibody (Amersham) (mouse); assay: fluorescence imaging of 0.8 µm capture particles on epoxy-hydrogel slides; dilution series of the Cy3-labeled target, overnight incubation

Particle Fluorescence Rate, Average [1]: 29.6 cps
Particle Fluorescence Rate, Maximum [1]: 62.6 cps
Particle Fluorescence Rate, Median [1]: 28.1 cps
Particle Fluorescence Rate, Minimum [1]: 14.8 cps
Particle Fluorescence Rate, Average [2]: 44.5 cps
Particle Fluorescence Rate, Maximum [2]: 66.2 cps
Particle Fluorescence Rate, Median [2]: 46.4 cps
Particle Fluorescence Rate, Minimum [2]: 12 cps
Particle Fluorescence Rate, Average [3]: 50.7 cps
Particle Fluorescence Rate, Maximum [3]: 74.1 cps
Particle Fluorescence Rate, Median [3]: 50.8 cps
Particle Fluorescence Rate, Minimum [3]: 34.1 cps
MPF/FBF [4]: 5.97
MPF/FBF [5]: 7.45
MPF/FBF [6]: 6.41
MPF/MPF0 [7]: 58.2
MPF/MPF0 [8]: 99.5
MPF/MPF0 [9]: 107
Net Median Particle Fluorescence, MPF [10]: 23 cps
Net Median Particle Fluorescence, MPF [11]: 40 cps
Net Median Particle Fluorescence, MPF [12]: 43 cps
Substance: goat anti-mouse IgG(Fc) coated particles, 3.2 µm in diameter (Spherotech, Inc., MPFc-30-5) (antibody)

detection level [13]: 1 pM
Substance: 0.8-µm-diameter particles coated with goat-anti-mouse antibody
